From the supplement of paper PMC11246515
± gives the standard deviation of the averaged measurements.

Experiment: total protein half-life in vivo (active degradation + dilution); higher = more stable protein
[1] = E. coli NCM3722 delta-clpP delta-lon delta-hslV, growth: N-lim chemostat, doubling time 6 h
[2] = E. coli NCM3722 delta-clpP, growth: N-lim chemostat, doubling time 6 h
[3] = E. coli NCM3722 delta-hslV, growth: N-lim chemostat, doubling time 6 h
[4] = E. coli NCM3722 delta-lon, growth: N-lim chemostat, doubling time 6 h
[5] = E. coli NCM3722 delta-smpB, growth: N-lim chemostat, doubling time 6 h
[6] = wild type E. coli NCM3722, growth: C-lim chemostat, doubling time 3 h
[7] = wild type E. coli NCM3722, growth: C-lim chemostat, doubling time 6 h
[8] = wild type E. coli NCM3722, growth: C-lim chemostat, doubling time 12 h
[9] = wild type E. coli NCM3722, growth: N-lim chemostat, doubling time 6 h
[10] = wild type E. coli NCM3722, growth: N-lim chemostat, doubling time 12 h
[11] = wild type E. coli NCM3722, growth: P-lim chemostat, doubling time 6 h
[12] = wild type E. coli NCM3722, growth: P-lim chemostat, doubling time 12 h

Sequence	total protein half-life in vivo [1]	total protein half-life in vivo [2]	total protein half-life in vivo [3]	total protein half-life in vivo [4]	total protein half-life in vivo [5]	total protein half-life in vivo [6]	total protein half-life in vivo [7]	total protein half-life in vivo [8]	total protein half-life in vivo [9]	total protein half-life in vivo [10]	total protein half-life in vivo [11]	total protein half-life in vivo [12]
MKTVRESTTLYNFLGSHNPYWRLTESSDVLRFSTTETTEPDRTLQLSAEQAARIREMTVITSSLMMSLTVDESDLSVHLVGRKINKREWAGNASAWHDTPAVARDLSHGLSFAEQVVSEAHSAIVILDSRGNIQRFNRLCEDYTGLKEHDVIGQSVFKLFMSRREAAASRRNNRVFFRSGNAYEVELWIPTCKGQRLFLFRNKFVHSGSGKNEIFLICSGTDITEERRAQERLRILANTDSITGLPNRNAMQDLIDHAINHADNNKVGVVYLDLDNFKKVNDAYGHLFGDQLLRDVSLAILSCLEHDQVLARPGGDEFLVLASNTSQSALEAMASRILTRLRLPFRIGLIEVYTSCSVGIALSPEHGSDSTAIIRHADTAMYTAKEGGRGQFCVFTPEMNQRVFEYLWLDTNLRKALENDQLVIHYQPKITWRGEVRSLEALVRWQSPERGLIPPLDFISYAEESGLIVPLGRWVILDVVRQVAKWRDKGINLRVAVNISARQLADQTIFTALKQVLQELNFEYCPIDVELTESCLIENDELALSVIQQFSQLGAQVHLDDFGTGYSSLSQLARFPIDAIKLDQVFVRDIHKQPVSQSLVRAIVAVAQALNLQVIAEGVESAKEDAFLTKNGINERQGFLFAKPMPAVAFERWYKRYLKRA	6.59 ± 1.2 h	2.14 h	2.36 ± 0.18 h	3.107 ± 0.019 h	1.94 ± 0.029 h	1.58 ± 0.59 h	4.6 ± 2.3 h	5.35 h	3.27 ± 0.56 h	3.63 h	–	–
MLNETPALAPDGQPYRLLTLRNNAGMVVTLMDWGATLLSARIPLSDGSVREALLGCASPECYQDQAAFLGASIGRYANRIANSRYTFDGETVTLSPSQGVNQLHGGPEGFDKRRWQIVNQNDRQVLFALSSDDGDQGFPGNLGATVQYRLTDDNRISITYRATVDKPCPVNMTNHVYFNLDGEQSDVRNHKLQILADEYLPVDEGGIPHDGLKSVAGTSFDFRSAKIIASEFLADDDQRKVKGYDHAFLLQAKGDGKKVAAHVWSADEKLQLKVYTTAPALQFYSGNFLGGTPSRGTEPYADWQGLALESEFLPDSPNHPEWPQPDCFLRPGEEYSSLTEYQFIAE [P0A9C3]	5.1 ± 0.083 h	4.67 ± 0.097 h	–	4.63 ± 0.11 h	4.275 ± 0.041 h	3.16 ± 0.33 h	6.76 ± 0.95 h	12.3 ± 1.5 h	4.71 ± 0.91 h	7.76 ± 0.98 h	6.38 ± 0.48 h	–
MKKKIESYQGAAGGWGAVKSVANAVRKQMDIRQDVIAMFDMNKPEGFDCPGCAWPDPKHSASFDICENGAKAIAWEVTDKQVNASFFAENTVQSLLTWGDHELEAAGRLTQPLKYDAVSDCYKPLSWQQAFDEIGARLQSYSDPNQVEFYTSGRTSNEAAFLYQLFAREYGSNNFPDCSNMCHEPTSVGLAASIGVGKGTVLLEDFEKCDLVICIGHNPGTNHPRMLTSLRALVKRGAKMIAINPLQERGLERFTAPQNPFEMLTNSETQLASAYYNVRIGGDMALLKGMMRLLIERDDAASAAGRPSLLDDEFIQTHTVGFDELRRDVLNSEWKDIERISGLSQTQIAELADAYAAAERTIICYGMGITQHEHGTQNVQQLVNLLLMKGNIGKPGAGICPLRGHSNVQGDRTVGITEKPSAEFLARLGERYGFTPPHAPGHAAIASMQAICTGQARALICMGGNFALAMPDREASAVPLTQLDLAVHVATKLNRSHLLTARHSYILPVLGRSEIDMQKNGAQAVTVEDSMSMIHASRGVLKPAGVMLKSECAVVAGIAQAALPQSVVAWEYLVEDYDRIRNDIEAVLPEFADYNQRIRHPGGFHLINAAAERRWMTPSGKANFITSKGLLEDPSSAFNSKLVMATVRSHDQYNTTIYGMDDRYRGVFGQRDVVFMSAKQAKICRVKNGERVNLIALTPDGKRSSRRMDRLKVVIYPMADRSLVTYFPESNHMLTLDNHDPLSGIPGYKSIPVELEPSN	5.48 ± 0.53 h	3.76 ± 1.3 h	4.01 ± 0.19 h	4.01 ± 0.03 h	3.52 ± 0.085 h	2.35 ± 0.34 h	2.95 ± 0.35 h	3.6 ± 0.45 h	3.5 ± 0.52 h	4.87 ± 1.3 h	3.7 ± 0.2 h	4.31 ± 0.17 h
MRKNTYAMRYVAGQPAERILPPGSFASIGQALPPGEPLSTEERIRILVWNIYKQQRAEWLSVLKNYGKDAHLVLLQEAQTTPELVQFATANYLAADQVPAFVLPQHPSGVMTLSAAHPVYCCPLREREPILRLAKSALVTVYPLPDTRLLMVVNIHAVNFSLGVDVYSKQLLPIGDQIAHHSGPVIMAGDFNAWSRRRMNALYRFAREMSLRQVRFTDDQRRRAFGRPLDFVFYRGLNVSEASVLVTRASDHNPLLVEFSPGKPDK [P0A8U2]	–	4.41 h	2.48 ± 0.64 h	3.2 ± 0.29 h	2.65 ± 0.35 h	1.62 ± 0.14 h	2.47 ± 0.035 h	3.514 ± 0.023 h	2.76 ± 0.092 h	4.14 ± 0.052 h	2.42 ± 0.055 h	3.83 ± 0.2 h
MNDTSFENCIKCTVCTTACPVSRVNPGYPGPKQAGPDGERLRLKDGALYDEALKYCINCKRCEVACPSDVKIGDIIQRARAKYDTTRPSLRNFVLSHTDLMGSVSTPFAPIVNTATSLKPVRQLLDAALKIDHRRTLPKYSFGTFRRWYRSVAAQQAQYKDQVAFFHGCFVNYNHPQLGKDLIKVLNAMGTGVQLLSKEKCCGVPLIANGFTDKARKQAITNVESIREAVGVKGIPVIATSSTCTFALRDEYPEVLNVDNKGLRDHIELATRWLWRKLDEGKTLPLKPLPLKVVYHTPCHMEKMGWTLYTLELLRNIPGLELTVLDSQCCGIAGTYGFKKENYPTSQAIGAPLFRQIEESGADLVVTDCETCKWQIEMSTSLRCEHPITLLAQALA [P0A996]	6.38 h	–	–	–	–	–	–	–	–	–	–	–
MFQKVDAYAGDPILTLMERFKEDPRSDKVNLSIGLYYNEDGIIPQLQAVAEAEARLNAQPHGASLYLPMEGLNCYRHAIAPLLFGADHPVLKQQRVATIQTLGGSGALKVGADFLKRYFPESGVWVSDPTWENHVAIFAGAGFEVSTYPWYDEATNGVRFNDLLATLKTLPARSIVLLHPCCHNPTGADLTNDQWDAVIEILKARELIPFLDIAYQGFGAGMEEDAYAIRAIASAGLPALVSNSFSKIFSLYGERVGGLSVMCEDAEAAGRVLGQLKATVRRNYSSPPNFGAQVVAAVLNDEALKASWLAEVEEMRTRILAMRQELVKVLSTEMPERNFDYLLNQRGMFSYTGLSAAQVDRLREEFGVYLIASGRMCVAGLNTANVQRVAKAFAAVM	4.07 ± 1.2 h	2.43 ± 0.047 h	2.54 ± 0.061 h	3.01 ± 0.049 h	2.676 ± 0.003 h	3.06 ± 0.56 h	4.92 ± 0.29 h	7.47 ± 0.87 h	2.62 ± 0.058 h	3.66 ± 0.17 h	5.28 ± 0.29 h	9.773 ± 0.058 h
MTRIKINARRIFSLLIPFFFFTSVHAEQTAAPAKPVTVEAKNETFAPQHPDQYLSWKATSEQSERVDALAEDPRLVILWAGYPFSRDYNKPRGHAFAVTDVRETLRTGAPKNAEDGPLPMACWSCKSPDVARLIQKDGEDGYFHGKWARGGPEIVNNLGCADCHNTASPEFAKGKPELTLSRPYAARAMEAIGKPFEKAGRFDQQSMVCGQCHVEYYFDGKNKAVKFPWDDGMKVENMEQYYDKIAFSDWTNSLSKTPMLKAQHPEYETWTAGIHGKNNVTCIDCHMPKVQNAEGKLYTDHKIGNPFDNFAQTCANCHTQDKAALQKVVAERKQSINDLKIKVEDQLVHAHFEAKAALDAGATEAEMKPIQDDIRHAQWRWDLAIASHGIHMHAPEEGLRMLGTAMDKAADARTKLARLLATKGITHEIQIPDISTKEKAQQAIGLNMEQIKAEKQDFIKTVIPQWEEQARKNGLLSQ [P0ABK9]	3.84 h	5.87 h	–	–	–	–	–	> 16 h	–	10.5 ± 0.82 h	–	–
MLDAQTIATVKATIPLLVETGPKLTAHFYDRMFTHNPELKEIFNMSNQRNGDQREALFNAIAAYASNIENLPALLPAVEKIAQKHTSFQIKPEQYNIVGEHLLATLDEMFSPGQEVLDAWGKAYGVLANVFINREAEIYNENASKAGGWEGTRDFRIVAKTPRSALITSFELEPVDGGAVAEYRPGQYLGVWLKPEGFPHQEIRQYSLTRKPDGKGYRIAVKREEGGQVSNWLHNHANVGDVVKLVAPAGDFFMAVADDTPVTLISAGVGQTPMLAMLDTLAKAGHTAQVNWFHAAENGDVHAFADEVKELGQSLPRFTAHTWYRQPSEADRAKGQFDSEGLMDLSKLEGAFSDPTMQFYLCGPVGFMQFTAKQLVDLGVKQENIHYECFGPHKVL	2.41 ± 0.082 h	1.52 ± 0.25 h	1.56 ± 0.032 h	1.85 ± 0.057 h	1.75 ± 0.062 h	2.76 ± 0.13 h	3.62 ± 0.29 h	5.61 ± 0.94 h	1.79 ± 0.19 h	2.36 ± 0.053 h	4.51 ± 0.079 h	7.88 ± 1.2 h
MSDSQTLVVKLGTSVLTGGSRRLNRAHIVELVRQCAQLHAAGHRIVIVTSGAIAAGREHLGYPELPATIASKQLLAAVGQSRLIQLWEQLFSIYGIHVGQMLLTRADMEDRERFLNARDTLRALLDNNIVPVINENDAVATAEIKVGDNDNLSALAAILAGADKLLLLTDQKGLYTADPRSNPQAELIKDVYGIDDALRAIAGDSVSGLGTGGMSTKLQAADVACRAGIDTIIAAGSKPGVIGDVMEGISVGTLFHAQATPLENRKRWIFGAPPAGEITVDEGATAAILERGSSLLPKGIKSVTGNFSRGEVIRICNLEGRDIAHGVSRYNSDALRRIAGHHSQEIDAILGYEYGPVAVHRDDMITR [P0A7B5]	3.94 ± 0.49 h	3.94 ± 0.43 h	4.25 ± 0.076 h	5.654 ± 0.012 h	3.57 ± 0.05 h	2.98 ± 0.13 h	5.35 ± 0.17 h	9.09 ± 0.098 h	4.4 ± 0.31 h	9.48 ± 1.3 h	5.69 ± 0.71 h	11.7 ± 0.25 h
MPEATPFQVMIVDDHPLMRRGVRQLLELDPGSEVVAEAGDGASAIDLANRLDIDVILLDLNMKGMSGLDTLNALRRDGVTAQIIILTVSDASSDVFALIDAGADGYLLKDSDPEVLLEAIRAGAKGSKVFSERVNQYLREREMFGAEEDPFSVLTERELDVLHELAQGLSNKQIASVLNISEQTVKVHIRNLLRKLNVRSRVAATILFLQQRGAQ	5.05 ± 0.31 h	2.4265 ± 0.00011 h	2.17 ± 0.36 h	4.47 ± 1.4 h	2.02 ± 0.099 h	2.08 ± 0.15 h	3.41 ± 0.22 h	5.71 ± 1 h	2.3 ± 0.18 h	2.86 ± 0.24 h	2.62 ± 0.31 h	4.65 ± 0.4 h
MRFSRFIIGLTSCIAFSVQAANVDEYITQLPAGANLALMVQKVGASAPAIDYHSQQMALPASTQKVITALAALIQLGPDFRFTTTLETKGNVENGVLKGDLVARFGADPTLKRQDIRNMVATLKKSGVNQIDGNVLIDTSIFASHDKAPGWPWNDMTQCFSAPPAAAIVDRNCFSVSLYSAPKPGDMAFIRVASYYPVTMFSQVRTLPRGSAEAQYCELDVVPGDLNRFTLTGCLPQRSEPLPLAFAVQDGASYAGAILKDELKQAGITWSGTLLRQTQVNEPGTVVASKQSAPLHDLLKIMLKKSDNMIADTVFRMIGHARFNVPGTWRAGSDAVRQILRQQAGVDIGNTIIADGSGLSRHNLIAPATMMQVLQYIAQHDNELNFISMLPLAGYDGSLQYRAGLHQAGVDGKVSAKTGSLQGVYNLAGFITTASGQRMAFVQYLSGYAVEPADQRNRRIPLVRFESRLYKDIYQNN	6.48 ± 0.36 h	6.25 ± 0.35 h	6.87 ± 0.72 h	6.194 ± 0.044 h	6.051 ± 0.02 h	3.24 ± 0.54 h	6.21 ± 0.86 h	12.7 ± 0.72 h	6.15 ± 0.52 h	13.4 ± 0.64 h	6.25 ± 0.55 h	12.6 ± 0.42 h
